Reference: patent publication US20140223606, “COMPOSITIONS AND METHODS COMPRISING SEQUENCES HAVING MEGANUCLEASE ACTIVITY” (PIONEER HI BRED INTERNATIONAL INC, published 2014)

Legend:
Conditions in all cases: tags: NLS, 6xHis
[1] = molecular target: T1, MHP14(13) (artificial); experiment: cell_activity; yeast 37 C; 28 C: 1
T1 chain: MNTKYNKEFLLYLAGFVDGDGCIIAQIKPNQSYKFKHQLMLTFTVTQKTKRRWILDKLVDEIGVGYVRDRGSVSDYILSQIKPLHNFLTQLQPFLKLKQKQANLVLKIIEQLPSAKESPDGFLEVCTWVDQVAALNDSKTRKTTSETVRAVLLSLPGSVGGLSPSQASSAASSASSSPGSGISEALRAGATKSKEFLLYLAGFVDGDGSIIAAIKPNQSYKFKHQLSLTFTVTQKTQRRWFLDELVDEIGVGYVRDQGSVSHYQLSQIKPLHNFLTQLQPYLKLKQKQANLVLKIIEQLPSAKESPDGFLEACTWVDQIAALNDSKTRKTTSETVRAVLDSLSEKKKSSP
Description: (§1) A 3 mL culture of selective media (MP Biomedical) was inoculated with a single colony of the yeast screening strain and grown at 30° C. overnight. On the following day, a 50 ml YPD culture (MP Biomedical) was started with 2 ml of the overnight culture and grown at 30° C. overnight. On the following day, the cells were harvested by centrifugation at 4000 rpm. The cells were resuspended in 100 ml ice cold water and centrifuged again. The cells were then washed in 1.2 M sorbitol, followed by treatment with 2 ml of 10 mM Tris pH 8.0, 1 mM EDTA, 100 mM Lithium acetate, 10 mM DTT, 0.6M sorbitol for 30 minutes at 30° C. with shaking. The cells were recovered by centrifugation, washed in 40 ml 1.2M sorbitol and finally resuspended in 250 microliters of 1.2M sorbitol. 50 microliter aliquots were transferred to test tubes on ice. Up to 5 microliters of DNA (100-500 nanograms) were added. The suspension was transferred to a 0.2 cm electroporation cuvette, on ice. Electroporation was performed with a pulse charge at 1.5 kV, 200 ohms, 25 microF (pulse time of 5 milliseconds). 1 mL YPD media (MP Biomedical) was added and the cells were allowed to recover at 30° C. for 1-2 hr. The cells were centrifuged, resuspended in 100 uL 1M sorbitol and plated on selective media lacking leucine and containing 2% galactose. The resulting yeast colonies were incubated at various temperatures ranging from 22 to 37 degrees Celsius for 7-10 days. I-CreI and meganucleases derived from it have maximal activity at or above 37 degrees Celsius. Screening was performed at a range of temperatures from 22 to 37 degrees in order to observe increases in activity at lower temperatures which are relevant to certain biological systems (eg. plant cells, plant cell cultures, etc). At that time the red/white sectoring phenotype, indicative of meganuclease activity was observed. Colonies with increased white sectoring over the parental meganuclease (indicating colonies expressing a meganuclease with increased meganuclease activity), also referred to as “hits” and sometimes completely white, were isolated for further analysis. […]

[2] = molecular target: T2, MHP14(08) (artificial); experiment: cell_activity; yeast 37 C; 28 C: 1
T2 chain: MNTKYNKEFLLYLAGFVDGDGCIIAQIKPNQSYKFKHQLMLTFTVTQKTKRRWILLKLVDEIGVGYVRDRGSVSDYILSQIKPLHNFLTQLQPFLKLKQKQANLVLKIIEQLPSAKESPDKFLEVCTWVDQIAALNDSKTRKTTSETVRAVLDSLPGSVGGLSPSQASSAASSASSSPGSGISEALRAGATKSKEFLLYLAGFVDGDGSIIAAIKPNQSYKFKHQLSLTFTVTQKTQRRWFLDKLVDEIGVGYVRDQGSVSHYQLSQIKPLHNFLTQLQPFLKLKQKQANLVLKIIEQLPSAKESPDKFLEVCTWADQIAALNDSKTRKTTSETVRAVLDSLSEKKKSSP
Description: as §1

[3] = molecular target: T3, ZM6.3(H2) (artificial); experiment: cell_activity; yeast 37 C; 28 C: 2
T3 chain: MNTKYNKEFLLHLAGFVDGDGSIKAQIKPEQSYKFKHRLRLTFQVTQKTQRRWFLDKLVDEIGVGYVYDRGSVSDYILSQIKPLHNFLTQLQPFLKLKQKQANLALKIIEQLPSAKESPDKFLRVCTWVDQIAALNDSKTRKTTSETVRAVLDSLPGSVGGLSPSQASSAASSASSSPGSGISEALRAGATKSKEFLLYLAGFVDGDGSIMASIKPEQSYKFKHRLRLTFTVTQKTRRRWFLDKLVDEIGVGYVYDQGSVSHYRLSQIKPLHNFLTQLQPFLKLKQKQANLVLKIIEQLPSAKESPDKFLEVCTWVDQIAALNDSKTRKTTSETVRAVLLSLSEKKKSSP
Description: (§2) A 3 mL culture of selective media (MP Biomedical) was inoculated with a single colony of the yeast screening strain and grown at 30° C. overnight. On the following day, a 50 ml YPD culture (MP Biomedical) was started with 2 ml of the overnight culture and grown at 30° C. overnight. On the following day, the cells were harvested by centrifugation at 4000 rpm. The cells were resuspended in 100 ml ice cold water and centrifuged again. The cells were then washed in 1.2 M sorbitol, followed by treatment with 2 ml of 10 mM Tris pH 8.0, 1 mM EDTA, 100 mM Lithium acetate, 10 mM DTT, 0.6M sorbitol for 30 minutes at 30° C. with shaking. The cells were recovered by centrifugation, washed in 40 ml 1.2M sorbitol and finally resuspended in 250 microliters of 1.2M sorbitol. 50 microliter aliquots were transferred to test tubes on ice. Up to 5 microliters of DNA (100-500 nanograms) were added. The suspension was transferred to a 0.2 cm electroporation cuvette, on ice. Electroporation was performed with a pulse charge at 1.5 kV, 200 ohms, 25 microF (pulse time of 5 milliseconds). 1 mL YPD media (MP Biomedical) was added and the cells were allowed to recover at 30° C. for 1-2 hr. The cells were centrifuged, resuspended in 100 uL 1M sorbitol and plated on selective media lacking leucine and containing 2% galactose. The resulting yeast colonies were incubated at various temperatures ranging from 22 to 37 degrees Celsius for 7-10 days. I-CreI and meganucleases derived from it have maximal activity at or above 37 degrees Celsius. Screening was performed at a range of temperatures from 22 to 37 degrees in order to observe increases in activity at lower temperatures which are relevant to certain biological systems (eg. plant cells, plant cell cultures, etc). At that time the red/white sectoring phenotype, indicative of meganuclease activity was observed. Colonies with increased white sectoring over the parental meganuclease (indicating colonies expressing a meganuclease with increased meganuclease activity), also referred to as “hits” and sometimes completely white, were isolated for further analysis.
(§3) A total of 15 Zm6.3 variants with increased activity were confirmed in the yeast system (as described in Example 6). Increased activity was observed across a range of temperatures: 28 degrees Celsius, 30 degrees Celsius and 37 degrees Celsius, as shown in Table 15.

[4] = molecular target: T4, ZM6.3(H3) (artificial); experiment: cell_activity; yeast 37 C; 28 C: 2
T4 chain: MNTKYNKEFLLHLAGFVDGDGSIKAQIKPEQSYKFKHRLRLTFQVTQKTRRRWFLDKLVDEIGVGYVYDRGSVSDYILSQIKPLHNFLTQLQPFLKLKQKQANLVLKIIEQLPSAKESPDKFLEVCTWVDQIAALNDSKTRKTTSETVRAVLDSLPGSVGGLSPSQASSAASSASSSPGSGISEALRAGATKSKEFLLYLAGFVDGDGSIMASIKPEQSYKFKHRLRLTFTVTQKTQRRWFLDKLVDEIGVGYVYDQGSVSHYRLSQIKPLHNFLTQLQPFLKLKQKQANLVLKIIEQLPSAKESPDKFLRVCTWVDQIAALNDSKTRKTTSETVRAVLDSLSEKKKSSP
Description: as §2, §3

[5] = molecular target: T5, ZM6.3(G4) (artificial); experiment: cell_activity; yeast 37 C; 28 C: 2
T5 chain: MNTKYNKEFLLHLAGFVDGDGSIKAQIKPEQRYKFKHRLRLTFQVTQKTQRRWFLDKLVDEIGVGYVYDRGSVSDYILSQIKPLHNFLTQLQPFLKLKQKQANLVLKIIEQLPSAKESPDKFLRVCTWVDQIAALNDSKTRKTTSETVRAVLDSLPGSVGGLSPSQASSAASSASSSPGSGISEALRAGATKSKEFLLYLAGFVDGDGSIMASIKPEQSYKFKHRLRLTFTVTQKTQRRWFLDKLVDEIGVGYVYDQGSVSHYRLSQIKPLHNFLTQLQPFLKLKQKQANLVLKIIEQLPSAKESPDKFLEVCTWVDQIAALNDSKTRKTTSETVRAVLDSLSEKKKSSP
Description: as §2, §3

B1: MHP14 recognition site (dsDNA)
DNA 1: CAAACAGATTCACGTCAGATTT
DNA 2: AAATCTGACGTGAATCTGTTTG
- activity [1]: 3.5 score 0-4
- activity [2]: 4 score 0-4

B2: ZM6.3 recognition site (dsDNA)
DNA 1: CAGGCTCTCGTAAATGCGCCTG
DNA 2: CAGGCGCATTTACGAGAGCCTG
- activity [3]: 4 score 0-4
- activity [4]: 4 score 0-4
- activity [5]: 4 score 0-4
